Reference: US20220298218A1 (ANTAG THERAPEUTICS, published 2022)
*1 amine or outer side, *2 acyl side, *3 side chain or, on linkers, in order; H or OH if unused. Where no end group is shown, it is not given here. Side-chain parts run from the residue outwards. The star is where a group is joined. C18 diacid = O=C(O)CCCCCCCCCCCCCCCCC(=O)*; γGlu = O=C(O)[C@H](CCC(=O)[*:2])N[*:1]; AEEA = NCCOCCOCC(=O)O

Target: T1, human GIP receptor (human, UniProt P48546 22-466)
T1 sequence (looked up): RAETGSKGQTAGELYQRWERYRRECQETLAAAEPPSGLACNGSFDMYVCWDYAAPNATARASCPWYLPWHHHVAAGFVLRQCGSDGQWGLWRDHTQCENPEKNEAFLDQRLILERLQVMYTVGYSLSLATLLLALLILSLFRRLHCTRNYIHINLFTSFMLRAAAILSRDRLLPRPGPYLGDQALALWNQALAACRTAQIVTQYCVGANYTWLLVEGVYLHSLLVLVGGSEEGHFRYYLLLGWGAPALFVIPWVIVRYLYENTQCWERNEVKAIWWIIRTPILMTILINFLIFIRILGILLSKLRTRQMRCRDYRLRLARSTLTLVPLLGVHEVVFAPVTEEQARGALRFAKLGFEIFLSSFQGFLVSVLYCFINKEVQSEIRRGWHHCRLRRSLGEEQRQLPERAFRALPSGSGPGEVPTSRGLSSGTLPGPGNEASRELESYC
Experiment: cell-based or functional assay

B1: AT588 (peptide)
peptide: EGTFISDYSIAMDKIK([AEEA-AEEA-γGlu-C18 diacid])QQDFVNWLLAQKGPSSGAPPPS-NH2
modifications: N-terminus assumed
SMILES: CC[C@H](C)[C@H](NC(=O)[C@H](CO)NC(=O)[C@H](Cc1ccc(O)cc1)NC(=O)[C@H](CC(=O)O)NC(=O)[C@H](CO)NC(=O)[C@@H](NC(=O)[C@H](Cc1ccccc1)NC(=O)[C@@H](NC(=O)CNC(=O)[C@@H](N)CCC(=O)O)[C@@H](C)O)[C@@H](C)CC)C(=O)N[C@@H](C)C(=O)N[C@@H](CCSC)C(=O)N[C@@H](CC(=O)O)C(=O)N[C@@H](CCCCN)C(=O)N[C@H](C(=O)N[C@@H](CCCCNC(=O)COCCOCCNC(=O)COCCOCCNC(=O)CC[C@H](NC(=O)CCCCCCCCCCCCCCCCC(=O)O)C(=O)O)C(=O)N[C@@H](CCC(N)=O)C(=O)N[C@@H](CCC(N)=O)C(=O)N[C@@H](CC(=O)O)C(=O)N[C@@H](Cc1ccccc1)C(=O)N[C@H](C(=O)N[C@@H](CC(N)=O)C(=O)N[C@@H](Cc1c[nH]c2ccccc12)C(=O)N[C@@H](CC(C)C)C(=O)N[C@@H](CC(C)C)C(=O)N[C@@H](C)C(=O)N[C@@H](CCC(N)=O)C(=O)N[C@@H](CCCCN)C(=O)NCC(=O)N1CCC[C@H]1C(=O)N[C@@H](CO)C(=O)N[C@@H](CO)C(=O)NCC(=O)N[C@@H](C)C(=O)N1CCC[C@H]1C(=O)N1CCC[C@H]1C(=O)N1CCC[C@H]1C(=O)N[C@@H](CO)C(N)=O)C(C)C)[C@@H](C)CC
In the case of B1, the “cAMP agonism % Emax” value is reported as 0%, the “cAMP antagonism” value is reported as 23.3 nM and the “cAMP antagonism % inhib” value is reported as 97%. For the same binder, the “cAMP antagonism pIC50” value was 7.6.

B2: AT563 (peptide)
peptide: TFISDYSIAMDKIK([AEEA-AEEA-γGlu-C18 diacid])QQDFVNWLLAQKGKKNDW-OH
modifications: N-terminus assumed
SMILES: CC[C@H](C)[C@H](NC(=O)[C@H](CO)NC(=O)[C@H](Cc1ccc(O)cc1)NC(=O)[C@H](CC(=O)O)NC(=O)[C@H](CO)NC(=O)[C@@H](NC(=O)[C@H](Cc1ccccc1)NC(=O)[C@@H](N)[C@@H](C)O)[C@@H](C)CC)C(=O)N[C@@H](C)C(=O)N[C@@H](CCSC)C(=O)N[C@@H](CC(=O)O)C(=O)N[C@@H](CCCCN)C(=O)N[C@H](C(=O)N[C@@H](CCCCNC(=O)COCCOCCNC(=O)COCCOCCNC(=O)CC[C@H](NC(=O)CCCCCCCCCCCCCCCCC(=O)O)C(=O)O)C(=O)N[C@@H](CCC(N)=O)C(=O)N[C@@H](CCC(N)=O)C(=O)N[C@@H](CC(=O)O)C(=O)N[C@@H](Cc1ccccc1)C(=O)N[C@H](C(=O)N[C@@H](CC(N)=O)C(=O)N[C@@H](Cc1c[nH]c2ccccc12)C(=O)N[C@@H](CC(C)C)C(=O)N[C@@H](CC(C)C)C(=O)N[C@@H](C)C(=O)N[C@@H](CCC(N)=O)C(=O)N[C@@H](CCCCN)C(=O)NCC(=O)N[C@@H](CCCCN)C(=O)N[C@@H](CCCCN)C(=O)N[C@@H](CC(N)=O)C(=O)N[C@@H](CC(=O)O)C(=O)N[C@@H](Cc1c[nH]c2ccccc12)C(=O)O)C(C)C)[C@@H](C)CC
With B2 the “cAMP agonism % Emax” value was 0%, the “cAMP antagonism” value was 4.64 nM and the “cAMP antagonism % inhib” value was 80%. For the same binder, the “cAMP antagonism pIC50” value was 8.3.

B3: AT589 (peptide)
peptide: EGTFISDYSIAMDKIK([AEEA-AEEA-γGlu-C18 diacid])QQDFVNWLLAQKGPSSGAPPPS
For B3, the “cAMP agonism % Emax” value was 0%, the “cAMP antagonism” value was 5.84 nM and the “cAMP antagonism % inhib” value was 95%. The “cAMP antagonism pIC50” value was 8.2.

B4: AT562 (peptide)
peptide: TFISDYSK([AEEA-AEEA-γGlu-C18 diacid])AMDKIHQQDFVNWLLAQKGKKNDW-OH
modifications: N-terminus assumed
SMILES: CC[C@H](C)[C@H](NC(=O)[C@H](CCCCN)NC(=O)[C@H](CC(=O)O)NC(=O)[C@H](CCSC)NC(=O)[C@H](C)NC(=O)[C@H](CCCCNC(=O)COCCOCCNC(=O)COCCOCCNC(=O)CC[C@H](NC(=O)CCCCCCCCCCCCCCCCC(=O)O)C(=O)O)NC(=O)[C@H](CO)NC(=O)[C@H](Cc1ccc(O)cc1)NC(=O)[C@H](CC(=O)O)NC(=O)[C@H](CO)NC(=O)[C@@H](NC(=O)[C@H](Cc1ccccc1)NC(=O)[C@@H](N)[C@@H](C)O)[C@@H](C)CC)C(=O)N[C@@H](Cc1c[nH]cn1)C(=O)N[C@@H](CCC(N)=O)C(=O)N[C@@H](CCC(N)=O)C(=O)N[C@@H](CC(=O)O)C(=O)N[C@@H](Cc1ccccc1)C(=O)N[C@H](C(=O)N[C@@H](CC(N)=O)C(=O)N[C@@H](Cc1c[nH]c2ccccc12)C(=O)N[C@@H](CC(C)C)C(=O)N[C@@H](CC(C)C)C(=O)N[C@@H](C)C(=O)N[C@@H](CCC(N)=O)C(=O)N[C@@H](CCCCN)C(=O)NCC(=O)N[C@@H](CCCCN)C(=O)N[C@@H](CCCCN)C(=O)N[C@@H](CC(N)=O)C(=O)N[C@@H](CC(=O)O)C(=O)N[C@@H](Cc1c[nH]c2ccccc12)C(=O)O)C(C)C
B4 was tested, and the “cAMP agonism % Emax” value was 0%, the “cAMP antagonism” value was 3.98 nM and the “cAMP antagonism % inhib” value was 82%. For the same binder, the “cAMP antagonism pIC50” value was 8.4.

B5: AT586 (peptide)
peptide: EGTFISDYSIAMDKK([AEEA-AEEA-γGlu-C18 diacid])HQQDFVNWLLAQKPSSGAPPPS-NH2
modifications: N-terminus assumed
SMILES: CC[C@H](C)[C@H](NC(=O)[C@H](CO)NC(=O)[C@H](Cc1ccc(O)cc1)NC(=O)[C@H](CC(=O)O)NC(=O)[C@H](CO)NC(=O)[C@@H](NC(=O)[C@H](Cc1ccccc1)NC(=O)[C@@H](NC(=O)CNC(=O)[C@@H](N)CCC(=O)O)[C@@H](C)O)[C@@H](C)CC)C(=O)N[C@@H](C)C(=O)N[C@@H](CCSC)C(=O)N[C@@H](CC(=O)O)C(=O)N[C@@H](CCCCN)C(=O)N[C@@H](CCCCNC(=O)COCCOCCNC(=O)COCCOCCNC(=O)CC[C@H](NC(=O)CCCCCCCCCCCCCCCCC(=O)O)C(=O)O)C(=O)N[C@@H](Cc1c[nH]cn1)C(=O)N[C@@H](CCC(N)=O)C(=O)N[C@@H](CCC(N)=O)C(=O)N[C@@H](CC(=O)O)C(=O)N[C@@H](Cc1ccccc1)C(=O)N[C@H](C(=O)N[C@@H](CC(N)=O)C(=O)N[C@@H](Cc1c[nH]c2ccccc12)C(=O)N[C@@H](CC(C)C)C(=O)N[C@@H](CC(C)C)C(=O)N[C@@H](C)C(=O)N[C@@H](CCC(N)=O)C(=O)N[C@@H](CCCCN)C(=O)N1CCC[C@H]1C(=O)N[C@@H](CO)C(=O)N[C@@H](CO)C(=O)NCC(=O)N[C@@H](C)C(=O)N1CCC[C@H]1C(=O)N1CCC[C@H]1C(=O)N1CCC[C@H]1C(=O)N[C@@H](CO)C(N)=O)C(C)C
In the case of B5, the “cAMP agonism % Emax” value is reported as 0%, the “cAMP antagonism” value is reported as 25.1 nM and the “cAMP antagonism % inhib” value is reported as 80%. The “cAMP antagonism pIC50” value was 7.6.

B6: AT587 (peptide)
peptide: EGTFISDYSIAMDKIK([AEEA-AEEA-γGlu-C18 diacid])QQDFVNWLLAQKPSSGAPPPS-NH2
modifications: N-terminus assumed
SMILES: CC[C@H](C)[C@H](NC(=O)[C@H](CO)NC(=O)[C@H](Cc1ccc(O)cc1)NC(=O)[C@H](CC(=O)O)NC(=O)[C@H](CO)NC(=O)[C@@H](NC(=O)[C@H](Cc1ccccc1)NC(=O)[C@@H](NC(=O)CNC(=O)[C@@H](N)CCC(=O)O)[C@@H](C)O)[C@@H](C)CC)C(=O)N[C@@H](C)C(=O)N[C@@H](CCSC)C(=O)N[C@@H](CC(=O)O)C(=O)N[C@@H](CCCCN)C(=O)N[C@H](C(=O)N[C@@H](CCCCNC(=O)COCCOCCNC(=O)COCCOCCNC(=O)CC[C@H](NC(=O)CCCCCCCCCCCCCCCCC(=O)O)C(=O)O)C(=O)N[C@@H](CCC(N)=O)C(=O)N[C@@H](CCC(N)=O)C(=O)N[C@@H](CC(=O)O)C(=O)N[C@@H](Cc1ccccc1)C(=O)N[C@H](C(=O)N[C@@H](CC(N)=O)C(=O)N[C@@H](Cc1c[nH]c2ccccc12)C(=O)N[C@@H](CC(C)C)C(=O)N[C@@H](CC(C)C)C(=O)N[C@@H](C)C(=O)N[C@@H](CCC(N)=O)C(=O)N[C@@H](CCCCN)C(=O)N1CCC[C@H]1C(=O)N[C@@H](CO)C(=O)N[C@@H](CO)C(=O)NCC(=O)N[C@@H](C)C(=O)N1CCC[C@H]1C(=O)N1CCC[C@H]1C(=O)N1CCC[C@H]1C(=O)N[C@@H](CO)C(N)=O)C(C)C)[C@@H](C)CC
For B6, the “cAMP agonism % Emax” value was 0%, the “cAMP antagonism” value was 3.98 nM and the “cAMP antagonism % inhib” value was 90%. For the same binder, the “cAMP antagonism pIC50” value was 8.4.

B7: AT590 (peptide)
peptide: EGTFISDYSIAMDKIK([AEEA-AEEA-γGlu-C18 diacid])QQDFVNWLLAQGPSSGAPPPS-NH2
modifications: N-terminus assumed
SMILES: CC[C@H](C)[C@H](NC(=O)[C@H](CO)NC(=O)[C@H](Cc1ccc(O)cc1)NC(=O)[C@H](CC(=O)O)NC(=O)[C@H](CO)NC(=O)[C@@H](NC(=O)[C@H](Cc1ccccc1)NC(=O)[C@@H](NC(=O)CNC(=O)[C@@H](N)CCC(=O)O)[C@@H](C)O)[C@@H](C)CC)C(=O)N[C@@H](C)C(=O)N[C@@H](CCSC)C(=O)N[C@@H](CC(=O)O)C(=O)N[C@@H](CCCCN)C(=O)N[C@H](C(=O)N[C@@H](CCCCNC(=O)COCCOCCNC(=O)COCCOCCNC(=O)CC[C@H](NC(=O)CCCCCCCCCCCCCCCCC(=O)O)C(=O)O)C(=O)N[C@@H](CCC(N)=O)C(=O)N[C@@H](CCC(N)=O)C(=O)N[C@@H](CC(=O)O)C(=O)N[C@@H](Cc1ccccc1)C(=O)N[C@H](C(=O)N[C@@H](CC(N)=O)C(=O)N[C@@H](Cc1c[nH]c2ccccc12)C(=O)N[C@@H](CC(C)C)C(=O)N[C@@H](CC(C)C)C(=O)N[C@@H](C)C(=O)N[C@@H](CCC(N)=O)C(=O)NCC(=O)N1CCC[C@H]1C(=O)N[C@@H](CO)C(=O)N[C@@H](CO)C(=O)NCC(=O)N[C@@H](C)C(=O)N1CCC[C@H]1C(=O)N1CCC[C@H]1C(=O)N1CCC[C@H]1C(=O)N[C@@H](CO)C(N)=O)C(C)C)[C@@H](C)CC
With B7 the “cAMP agonism % Emax” value was 0%, the “cAMP antagonism” value was 5.41 nM and the “cAMP antagonism % inhib” value was 93%. For the same binder, the “cAMP antagonism pIC50” value was 8.3.
